Read-outs that look alike come from different tables or passages of the source.
Assays:
Test in all cases: cell-based or functional assay
[1] = target: HA of B/Malaysia/2506/2004 (victoria) (influenza B virus)
[2] = target: HA of B/Sichuan/379/99 (yamagata) (influenza B virus)
[3] = target: HA of A/Wilson Smith N/33 (H1N1) (influenza A virus, UniProt P03454 18-565)
[4] = target: HA of A/Beijing/262/95 (H1N1) (influenza A virus)
[5] = target: HA of A/California/07/2009 (H1N1) (influenza A virus)
[6] = target: HA of A/Hong Kong/8/68 (H3N2) (influenza A virus)
[7] = target: HA of A/Victoria/3/75 (H3N2) (influenza A virus)
[8] = target: HA of A/Shan dong/9/93 (H3N2) (influenza A virus)
[9] = target: HA of ca A/Panama/2007/99 (H3N2) (influenza A virus)
[10] = target: HA of ca B/Beijing/243/97 (victoria) (influenza B virus)
[11] = target: HA of B/Hong Kong/330/2001 (victoria) (influenza B virus)
[12] = target: HA of B/Malaysia/2506/2004 (victoria) (influenza B virus); remark: listed apart in the source
[13] = target: HA of B/Ohio/1/2005 (victoria) (influenza B virus)
[14] = target: HA of B/Sichuan/379/99 (yamagata) (influenza B virus); remark: listed apart in the source
[15] = target: HA of B/Florida/4/2006 (yamagata) (influenza B virus)
HA of B/Lee/40 [16] = target: T1, HA of B/Lee/40 (influenza B virus, UniProt P03460 16-584)
T1 sequence (P03460 16-584 limits assumed): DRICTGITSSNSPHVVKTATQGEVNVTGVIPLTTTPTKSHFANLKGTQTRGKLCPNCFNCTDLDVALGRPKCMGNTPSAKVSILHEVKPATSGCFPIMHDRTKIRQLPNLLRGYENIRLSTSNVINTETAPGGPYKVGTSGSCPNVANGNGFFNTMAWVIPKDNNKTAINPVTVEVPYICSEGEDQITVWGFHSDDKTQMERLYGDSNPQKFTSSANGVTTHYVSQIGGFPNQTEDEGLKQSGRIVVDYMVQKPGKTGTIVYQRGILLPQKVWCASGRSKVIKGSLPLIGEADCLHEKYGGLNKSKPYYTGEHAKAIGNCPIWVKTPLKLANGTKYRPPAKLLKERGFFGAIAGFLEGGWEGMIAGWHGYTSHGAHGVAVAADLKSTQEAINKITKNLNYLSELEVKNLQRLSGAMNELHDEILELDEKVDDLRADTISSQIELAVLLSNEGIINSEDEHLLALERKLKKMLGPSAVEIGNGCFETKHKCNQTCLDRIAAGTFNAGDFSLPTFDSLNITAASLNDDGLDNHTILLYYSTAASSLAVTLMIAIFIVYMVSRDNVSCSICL

[17] = target: HA of ca B/Ann Arbor/1/66 (influenza B virus)
HA of B/Hong Kong/5/72 [18] = target: HA of B/Hong Kong/5/72 (influenza B virus)
[19] = target: HA of ca B/Beijing/243/97 (victoria) (influenza B virus); remark: listed apart in the source
[20] = target: HA of B/Hong Kong/330/2001 (victoria) (influenza B virus); remark: listed apart in the source
[21] = target: HA of B/Malaysia/2506/2004 (victoria) (influenza B virus); remark: listed apart in the source
[22] = target: HA of B/Ohio/1/2005 (victoria) (influenza B virus); remark: listed apart in the source
[23] = target: HA of ca B/Brisbane/60/2008 (victoria) (influenza B virus)
[24] = target: HA of B/Nevada/3/2011 (victoria) (influenza B virus)
[25] = target: HA of B/New Jersey/01/2012 (victoria) (influenza B virus)
[26] = target: HA of B/Texas/2/2013 (victoria) (influenza B virus)
[27] = target: HA of B/Wisconsin/5/2013 (victoria) (influenza B virus)
[28] = target: HA of B/Yamagata/16/88 (yamagata) (influenza B virus)
[29] = target: HA of ca B/Georgia/02/98 (yamagata) (influenza B virus)
[30] = target: HA of B/Sichuan/379/99 (yamagata) (influenza B virus); remark: listed apart in the source
[31] = target: HA of ca B/Victoria/504/2000 (yamagata) (influenza B virus)
[32] = target: HA of B/Florida/4/2006 (yamagata) (influenza B virus); remark: listed apart in the source
[33] = target: HA of B/Wisconsin/1/2010 (yamagata) (influenza B virus)
[34] = target: HA of B/Arizona/8/2013 (yamagata) (influenza B virus)
[35] = target: HA of B/Phuket/3073/2013 (yamagata) (influenza B virus)
HA of B/Lee/40 [36] = target: T1, HA of B/Lee/40; remark: listed apart in the source
[37] = target: HA of ca B/Ann Arbor/1/66 (influenza B virus); remark: listed apart in the source
HA of B/Hong Kong/5/72 [38] = target: HA of B/Hong Kong/5/72 (influenza B virus); remark: listed apart in the source
[39] = target: HA of ca B/Beijing/243/97 (victoria) (influenza B virus); remark: listed apart in the source
[40] = target: HA of B/Hong Kong/330/2001 (victoria) (influenza B virus); remark: listed apart in the source
[41] = target: HA of B/Malaysia/2506/2004 (victoria) (influenza B virus); remark: listed apart in the source
[42] = target: HA of B/Ohio/1/2005 (victoria) (influenza B virus); remark: listed apart in the source
[43] = target: HA of ca B/Brisbane/60/2008 (victoria) (influenza B virus); remark: listed apart in the source
[44] = target: HA of B/Yamagata/16/88 (yamagata) (influenza B virus); remark: listed apart in the source
[45] = target: HA of ca B/Ann Arbor/2/94 (yamagata) (influenza B virus)
[46] = target: HA of ca B/Georgia/02/98 (yamagata) (influenza B virus); remark: listed apart in the source
[47] = target: HA of B/Yamanashi/166/98 (yamagata) (influenza B virus)
[48] = target: HA of ca B/Johannesburg/5/99 (yamagata) (influenza B virus)
[49] = target: HA of B/Sichuan/379/99 (yamagata) (influenza B virus); remark: listed apart in the source
[50] = target: HA of ca B/Victoria/504/2000 (yamagata) (influenza B virus); remark: listed apart in the source
[51] = target: HA of B/Shanghai/361/02 (yamagata) (influenza B virus)
[52] = target: HA of B/Florida/4/2006 (yamagata) (influenza B virus); remark: listed apart in the source

Sequence of HA of A/Wilson Smith N/33 (H1N1) (P03454 18-565 limits assumed): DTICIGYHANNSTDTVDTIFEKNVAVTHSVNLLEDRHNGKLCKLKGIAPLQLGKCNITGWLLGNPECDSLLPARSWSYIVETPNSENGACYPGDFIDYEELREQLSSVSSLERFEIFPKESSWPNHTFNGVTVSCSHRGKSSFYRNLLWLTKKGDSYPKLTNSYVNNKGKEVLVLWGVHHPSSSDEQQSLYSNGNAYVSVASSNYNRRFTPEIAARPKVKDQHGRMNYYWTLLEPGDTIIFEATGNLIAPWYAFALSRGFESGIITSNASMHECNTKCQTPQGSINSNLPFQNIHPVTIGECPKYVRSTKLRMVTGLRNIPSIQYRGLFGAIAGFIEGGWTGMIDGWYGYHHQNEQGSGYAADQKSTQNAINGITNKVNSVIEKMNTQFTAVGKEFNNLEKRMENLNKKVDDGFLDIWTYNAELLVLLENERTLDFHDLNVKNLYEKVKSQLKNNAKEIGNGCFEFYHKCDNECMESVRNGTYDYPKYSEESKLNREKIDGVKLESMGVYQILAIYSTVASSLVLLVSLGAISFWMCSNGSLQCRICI

B1: FBC39 IgG (antibody, V domains shown)
VH: EVQLVVSGGGLVKPGGSLRLSCAASGLSFLNAWMSWVRQAPGKGLEWVGRIKSNTDGGTTDYAAPVKGRFSISRDDSKNMLFLHMSSLRTEDTAVYYCATDGPYSDDFRSGYAARYRYFGMDVWGQGTTVTVSS
VL: DIQMTQSPSSVSASVGDRVTITCRASQDISTWLAWYQQKPGKAPKLLIYAASSLQSGVPSRFSGSGSGTDFTLTISSLQPEDFATYFCQQANSFPPTFGQGTKLEIK
[1]
  ADCC: NK cell killing of infected A549 cells (LDH release), IC50: 1.45 nM
[2]
  ADCC: NK cell killing of infected A549 cells (LDH release), IC50: 0.85 nM
[3]
  Neutralization (IC50): > 1000 nM
[4]
  Neutralization (IC50): > 1000 nM
[5]
  Neutralization (IC50): > 1000 nM
[6]
  Neutralization (IC50): > 1000 nM
[7]
  Neutralization (IC50): > 1000 nM
[8]
  Neutralization (IC50): > 1000 nM
[9]
  Neutralization (IC50): > 1000 nM
[10]
  Neutralization (IC50): 0.4 nM
[11]
  Neutralization (IC50): 1 nM
[12]
  Neutralization (IC50): 1 nM
[13]
  Neutralization (IC50): 0.6 nM
[14]
  Neutralization (IC50): 0.2 nM
[15]
  Neutralization (IC50): 0.4 nM
HA of B/Lee/40 [16]
  Neutralization (IC50): 0.1 nM
[17]
  Neutralization (IC50): 0.6 nM
HA of B/Hong Kong/5/72 [18]
  Neutralization (IC50): 0.4 nM
[19]
  Neutralization (IC50): 0.9 nM
[20]
  Neutralization (IC50): 1.8 nM
[21]
  Neutralization (IC50): 1.2 nM
[22]
  Neutralization (IC50): 0.5 nM
[23]
  Neutralization (IC50): 1.5 nM
[24]
  Neutralization (IC50): 1.2 nM
[25]
  Neutralization (IC50): 0.7 nM
[26]
  Neutralization (IC50): 0.4 nM
[27]
  Neutralization (IC50): 0.5 nM
[28]
  Neutralization (IC50): 0.1 nM
[29]
  Neutralization (IC50): 0.1 nM
[30]
  Neutralization (IC50): 0.3 nM
[31]
  Neutralization (IC50): 0.2 nM
[32]
  Neutralization (IC50): 0.2 nM
[33]
  Neutralization (IC50): 0.1 nM
[34]
  Neutralization (IC50): 0.1 nM
[35]
  Neutralization (IC50): 0.2 nM
HA of B/Lee/40 [36]
  Hemagglutination Inhibition Titer: 5 nM
[37]
  Hemagglutination Inhibition Titer: 6 nM
HA of B/Hong Kong/5/72 [38]
  Hemagglutination Inhibition Titer: 8 nM
[39]
  Hemagglutination Inhibition Titer: 14 nM
[40]
  Hemagglutination Inhibition Titer: 16 nM
[41]
  Hemagglutination Inhibition Titer: 20 nM
[42]
  Hemagglutination Inhibition Titer: 24 nM
[43]
  Hemagglutination Inhibition Titer: 20 nM
[44]
  Hemagglutination Inhibition Titer: 11 nM
[45]
  Hemagglutination Inhibition Titer: 6 nM
[46]
  Hemagglutination Inhibition Titer: 16 nM
[47]
  Hemagglutination Inhibition Titer: 13 nM
[48]
  Hemagglutination Inhibition Titer: 18 nM
[49]
  Hemagglutination Inhibition Titer: 10 nM
[50]
  Hemagglutination Inhibition Titer: 16 nM
[51]
  Hemagglutination Inhibition Titer: 16 nM
[52]
  Hemagglutination Inhibition Titer: 7 nM

Source: patent US20180155413A1 (AstraZeneca / MedImmune, published 2018)
